From PMC11806408, “Prodomain processing controls BMP‐10 bioactivity and targeting to fibrillin‐1 in latent conformation” (The FASEB Journal, 2025)

T1: ENG ectodomain (R&D Systems #1097‐EN‐025/CF) (human, UniProt P17813 26-586)
T1 construct: Endoglin (ENG), ectodomain; The methods read 'the human IgG1‐Fc‐fusion ectodomains of BMPRII, ALK‐1 as well as ENG'; also called endoglin; co‐receptor ENG; source: bought: R&D Systems (#1097‐EN‐025/CF); not shown: Fc (human IgG1)
T1 sequence (looked up): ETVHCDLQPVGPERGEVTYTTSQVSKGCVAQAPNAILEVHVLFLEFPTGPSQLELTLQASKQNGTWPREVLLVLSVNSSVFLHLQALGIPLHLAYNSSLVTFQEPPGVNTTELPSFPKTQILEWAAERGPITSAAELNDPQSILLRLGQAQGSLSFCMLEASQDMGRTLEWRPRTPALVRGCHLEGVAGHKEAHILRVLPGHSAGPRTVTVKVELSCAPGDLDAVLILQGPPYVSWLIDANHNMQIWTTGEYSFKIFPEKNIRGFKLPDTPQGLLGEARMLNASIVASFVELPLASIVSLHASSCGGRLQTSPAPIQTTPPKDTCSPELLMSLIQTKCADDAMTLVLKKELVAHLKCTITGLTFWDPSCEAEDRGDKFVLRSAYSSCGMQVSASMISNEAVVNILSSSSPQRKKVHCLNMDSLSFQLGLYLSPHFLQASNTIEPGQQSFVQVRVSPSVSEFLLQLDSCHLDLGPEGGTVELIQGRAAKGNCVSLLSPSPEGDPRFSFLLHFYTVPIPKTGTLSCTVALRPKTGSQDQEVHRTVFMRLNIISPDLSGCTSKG

T2: BMP‐9 PD (E. coli) (human, UniProt Q9UK05 23-319)
T2 construct: also called BMP‐9 prodomain; source: E. coli BL21‐CodonPlus, purified (Ni‐NTA)
T2 sequence (looked up): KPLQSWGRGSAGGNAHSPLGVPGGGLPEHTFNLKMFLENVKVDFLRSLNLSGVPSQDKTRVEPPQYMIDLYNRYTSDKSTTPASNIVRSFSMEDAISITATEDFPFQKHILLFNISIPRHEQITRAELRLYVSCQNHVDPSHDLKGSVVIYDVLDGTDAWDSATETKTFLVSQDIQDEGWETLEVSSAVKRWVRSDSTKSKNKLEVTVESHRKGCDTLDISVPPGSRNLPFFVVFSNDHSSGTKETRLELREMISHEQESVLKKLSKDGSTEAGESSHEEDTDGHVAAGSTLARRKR

T3: BMP‐10 PD (E. coli) (human, UniProt O95393 22-316)
T3 construct: also called BMP‐10 prodomain; E. coli‐derived BMP‐10 PD; source: E. coli BL21‐CodonPlus, purified (Ni‐NTA)
T3 sequence (looked up): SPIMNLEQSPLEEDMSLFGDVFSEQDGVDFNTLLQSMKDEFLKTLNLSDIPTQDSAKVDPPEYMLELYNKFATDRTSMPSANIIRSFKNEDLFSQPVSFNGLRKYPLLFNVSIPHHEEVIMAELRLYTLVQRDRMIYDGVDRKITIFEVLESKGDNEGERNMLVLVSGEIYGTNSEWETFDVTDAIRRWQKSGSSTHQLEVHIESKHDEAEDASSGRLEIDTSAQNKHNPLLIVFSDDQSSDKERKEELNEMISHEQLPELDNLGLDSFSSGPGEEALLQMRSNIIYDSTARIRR

B1: BMPRII ectodomain, human IgG1‐Fc fusion (R&D Systems #811‐BR‐100/CF) (Fc fusion, UniProt Q13873 27-150, looked up)
chain: SQNQERLCAFKDPYQQDLGIGESRISHENGTILCSKGSTCYGLWEKSKGDINLVKQGCWSHIGDPQECHYEECVVTTTPPSIQNGTYRFCCCSTDLCNVNFTENFPPPDTTPLSPPHSFNRDET
notes: Bone morphogenetic protein receptor type II (BMPRII), ectodomain; 'human' in the sentence may qualify the IgG1 Fc only; also called BMP type II receptor; source: bought: R&D Systems (#811‐BR‐100/CF)
B2: processed BMP‐10 CPLX (tag‐free, HEK293) (complex, human)
chain 1: T3 sequence (looked up)
chain 2: NAKGNYCKRTPLYIDFKEIGWDSWIIAPPGYEAYECRGVCNYPLAEHLTPTKHAIIQALVHLKNSQKASKACCVPTKLEPISILYLDKGVVTYKFKYEGMAVSECGCR
modifications: N‐glycosylation
notes: Bone morphogenetic protein 10, human, prodomain (PD) up to the endogenous PPC cleavage site RIRR; calculated molecular weight without glycans 34.6 kDa; secreted through the BM40 signal peptide of the vector; Bone morphogenetic protein 10, human, growth factor (GF) released by PPC cleavage after RIRR; calculated molecular weight of the monomer 12.2 kDa; The SPR methods say only 'processed BMP‐10 …
B3: BMP‐10 PD (HEK293, from the processed BMP‐10 CPLX) (domain or fragment, human)
chain: T3 sequence (looked up)
modifications: N‐glycosylation
notes: Bone morphogenetic protein 10, human, prodomain (PD) up to the endogenous PPC cleavage site RIRR; band at 45 kDa, calculated molecular weight without glycans 34.6 kDa; The methods of SEC/MALS and AUC say only 'two fractions of BMP‐10'; also called separated BMP‐10 PD
B4: BMP‐10 GF (R&D Systems #2926‐BP‐025/CF) (ligand, human, UniProt O95393 317-424, looked up)
chain: B2 chain 2
notes: Bone morphogenetic protein 10, human, growth factor (GF) moiety that follows the PPC cleavage site RIRR; calculated molecular weight of the monomer 12.2 kDa, dimer 24.4 kDa; Disulfide-linked GF dimer; also called BMP‐10 growth factor; BMP‐10 GF dimer; source: bought: R&D Systems (#2926‐BP‐025/CF); called commercially available HEK293‐derived

Assays:
[1] = target: B2; assay: SPR; receptor ectodomains immobilised at 500 or 800 RUs on a CM5 chip by amine coupling; analytes 0 to 80 nM, 1:2 serial dilutions, 1× HBS‐EP; 1:1 model with mass transfer; apparent KD = kd/ka; three independent experiments; settings: both partners purified
[2] = target: T1, ENG ectodomain (R&D Systems …); assay: as above; settings: both partners purified
[3] = target: the molecule itself; assay: AUC; sedimentation velocity of elution fractions after SEC/MALS (S200 Increase, 1× PBS), 54 000 rpm, 280 nm, c(s) fit; PD dimer
[4] = target: B1; assay: SPR; receptor ectodomains immobilised at 500 or 800 RUs on a CM5 chip by amine coupling; analytes 0 to 80 nM, 1:2 serial dilutions, 1× HBS‐EP; 1:1 model with mass transfer; apparent KD = kd/ka; three independent experiments; settings: both partners purified
[5] = target: T1, ENG ectodomain (R&D Systems …); assay: as above; settings: both partners purified; remark: listed apart in the source
BMP‐9 PD (E. coli) = target: T2, BMP‐9 PD (E. coli); assay: SPR; PDs of BMP‐9, BMP‐10 and N‐10/C‐9 fusion PD immobilised at 450 RUs on a CM5 chip by amine coupling; BMP‐10 GF 0 to 80 nM, 1:2 serial dilutions, 1× HBS‐EP; 1:1 model with mass transfer; apparent KD = kd/ka; settings: both partners purified
BMP‐10 PD (E. coli) = target: T3, BMP‐10 PD (E. coli); assay: as above; settings: both partners purified

Binder: B1
Kd [1]: 0.8 ± 0.1 nM
koff [1]: 0.00079 s⁻¹
kon [1]: 940000 M⁻¹ s⁻¹

Binder: B2
binding result [2]: binds

Binder: B3
stoichiometry N [3]: 2

Binder: B4
Kd [4]: 2.6 ± 0.6 nM
koff [4]: 0.0017 s⁻¹
kon [4]: 690000 M⁻¹ s⁻¹
Kd [5]: 16.3 ± 2.9 nM
koff [5]: 0.008 s⁻¹
kon [5]: 490000 M⁻¹ s⁻¹
Kd (BMP‐9 PD (E. coli)): 10.4 ± 2.5 nM
koff (BMP‐9 PD (E. coli)): 0.0024 s⁻¹
kon (BMP‐9 PD (E. coli)): 230000 M⁻¹ s⁻¹
Kd (BMP‐10 PD (E. coli)): 5.2 ± 0.7 nM
koff (BMP‐10 PD (E. coli)): 0.0024 s⁻¹
kon (BMP‐10 PD (E. coli)): 500000 M⁻¹ s⁻¹
